The supplement of paper PMC7877785
± gives the uncertainty stated by the source.

Assay: self-splicing fitness, log relative to wild type (ln ratio); higher = more splicing; Tetrahymena group I intron in knt gene, E. coli kanamycin selection, DiMSum; sequences stand for … in CUCUCU…GGAGGGAAAAGUUAUCAGGCAUGCACCUGGUAGCUAGUCUUUAAACCAAUAGAUUGCAUCGGUUUAAAAGGCAAGACCGUCAAAUUGCGGGAAAGGGGUCAACAGCCGUUCAGUACCAAGUCUCAGGGGAAACUUUGAGAUGGCCUUGCAAAGGGUAUGGUAAUAAGCUGACGGACAUGGUCCUAACCACGCAGCCAAGUCCUAAGUCAACAGAUCUUCUGUUGAUAUGGAUGCAGUUCACAGACUAAAUGUCGGUCGGGGAAGAUGUAUUCUUCUCAUAAGAUAUAGUCGGACCUCUCCUUAAUGGGAGCUAGCGGAUGAAGUGAUGCAACACUGGAGCCGCUGGGAACUAAUUUGUAUGCGAAAGUAUAUUGAUUAGUUUUGGAGUACUCGUGGUCG
In short: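 A randomised library covering all eight P1ex-region intron nucleotides was built with the intron in the knt kanamycin-resistance gene on pET-22b(+) and held in E. coli BL21(DE3). Cells were grown overnight at 37°C or 30°C on LB agar, with or without 25 μg/mL kanamycin, plus 100 μg/mL carbenicillin, 50 μM IPTG and 0.2% rhamnose, and pooled colonies were amplicon-sequenced on an Illumina HiSeq 2500. DiMSum fitness is the error-weighted combination of wild-type-normalised replicate fold changes, kanamycin versus none.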

CCUCAGCAAUAUUACGAAUC
self-splicing fitness (ln) (30 °C): -3.45 ± 0.28 | self-splicing fitness (ln) (37 °C): -2.82 ± 0.31

AUUCAGCAAUAUUACGUGAG
self-splicing fitness (ln) (30 °C): 0.00589 ± 0.07 | self-splicing fitness (ln) (37 °C): 0.325 ± 0.12

UCAAAGCAAUAUUACGUUCU
self-splicing fitness (ln) (30 °C): -3.76 ± 0.26 | self-splicing fitness (ln) (37 °C): -2.87 ± 0.22

CUCCAGCAAUAUUACGCUGU
self-splicing fitness (ln) (30 °C): -4.01 ± 0.34 | self-splicing fitness (ln) (37 °C): -2.97 ± 0.34

AAGCAGCAAUAUUACGCAUG
self-splicing fitness (ln) (30 °C): -2.97 ± 0.2 | self-splicing fitness (ln) (37 °C): -2.27 ± 0.2

UCCGAGCAAUAUUACGUGGC
self-splicing fitness (ln) (30 °C): -3.27 ± 0.24 | self-splicing fitness (ln) (37 °C): -2.52 ± 0.33

UGACAGCAAUAUUACGUACA
self-splicing fitness (ln) (30 °C): -0.21 ± 0.087 | self-splicing fitness (ln) (37 °C): 0.281 ± 0.12

ACUAAGCAAUAUUACGAGUA
self-splicing fitness (ln) (30 °C): -2.35 ± 0.17 | self-splicing fitness (ln) (37 °C): -1.78 ± 0.18

ACGGAGCAAUAUUACGUUGA
self-splicing fitness (ln) (30 °C): -2.94 ± 0.2 | self-splicing fitness (ln) (37 °C): -2.29 ± 0.21

GCUCAGCAAUAUUACGUGAU
self-splicing fitness (ln) (30 °C): -0.424 ± 0.072 | self-splicing fitness (ln) (37 °C): -0.373 ± 0.078

AAAGAGCAAUAUUACGGAGA
self-splicing fitness (ln) (30 °C): -2.99 ± 0.22 | self-splicing fitness (ln) (37 °C): -1.98 ± 0.21

AACUAGCAAUAUUACGCUCC
self-splicing fitness (ln) (30 °C): -1.39 ± 0.15 | self-splicing fitness (ln) (37 °C): -0.732 ± 0.19

AGUCAGCAAUAUUACGGCAG
self-splicing fitness (ln) (30 °C): -0.629 ± 0.11 | self-splicing fitness (ln) (37 °C): -0.145 ± 0.15

CACUAGCAAUAUUACGAUAG
self-splicing fitness (ln) (30 °C): -0.974 ± 0.1 | self-splicing fitness (ln) (37 °C): -0.493 ± 0.11

CUCCAGCAAUAUUACGGGCC
self-splicing fitness (ln) (30 °C): -1.01 ± 0.26

UGAAAGCAAUAUUACGAUCG
self-splicing fitness (ln) (30 °C): -0.144 ± 0.15 | self-splicing fitness (ln) (37 °C): 0.0927 ± 0.17

AGGUAGCAAUAUUACGGCAG
self-splicing fitness (ln) (30 °C): -1.25 ± 0.015 | self-splicing fitness (ln) (37 °C): -0.539 ± 0.033

CAAUAGCAAUAUUACGAUCG
self-splicing fitness (ln) (30 °C): 0.123 ± 0.069 | self-splicing fitness (ln) (37 °C): -0.0654 ± 0.083

GCUAAGCAAUAUUACGACAU
self-splicing fitness (ln) (30 °C): -0.734 ± 0.013 | self-splicing fitness (ln) (37 °C): -0.156 ± 0.033

CCGGAGCAAUAUUACGUUCU
self-splicing fitness (ln) (30 °C): -1.23 ± 0.14

CAGGAGCAAUAUUACGAAGU
self-splicing fitness (ln) (30 °C): -4.19 ± 0.28 | self-splicing fitness (ln) (37 °C): -2.39 ± 0.37

ACUCAGCAAUAUUACGCUCG
self-splicing fitness (ln) (30 °C): -0.26 ± 0.087 | self-splicing fitness (ln) (37 °C): 0.176 ± 0.12

GGCAAGCAAUAUUACGACUC
self-splicing fitness (ln) (30 °C): -0.319 ± 0.15 | self-splicing fitness (ln) (37 °C): 0.265 ± 0.17

AAACAGCAAUAUUACGCUAA
self-splicing fitness (ln) (30 °C): -1.6 ± 0.084 | self-splicing fitness (ln) (37 °C): -1.58 ± 0.1

AUCUAGCAAUAUUACGCGAU
self-splicing fitness (ln) (37 °C): -2.53 ± 0.29

CUUUAGCAAUAUUACGGCCA
self-splicing fitness (ln) (37 °C): -0.666 ± 0.5

UCGAAGCAAUAUUACGGAUA
self-splicing fitness (ln) (30 °C): -1.08 ± 0.15 | self-splicing fitness (ln) (37 °C): -1.15 ± 0.19

GGCAAGCAAUAUUACGAGGC
self-splicing fitness (ln) (30 °C): -0.0179 ± 0.3

UUCGAGCAAUAUUACGAGUU
self-splicing fitness (ln) (30 °C): -1.62 ± 0.18 | self-splicing fitness (ln) (37 °C): -0.549 ± 0.17

UAAUAGCAAUAUUACGCUCC
self-splicing fitness (ln) (30 °C): -1.74 ± 0.39 | self-splicing fitness (ln) (37 °C): -0.899 ± 0.32

GUACAGCAAUAUUACGAUGA
self-splicing fitness (ln) (30 °C): -1.87 ± 0.097 | self-splicing fitness (ln) (37 °C): -0.889 ± 0.11

GAAAAGCAAUAUUACGGUCA
self-splicing fitness (ln) (30 °C): -0.479 ± 0.067 | self-splicing fitness (ln) (37 °C): 0.0562 ± 0.073

CGUCAGCAAUAUUACGGUGU
self-splicing fitness (ln) (30 °C): -2.66 ± 0.12 | self-splicing fitness (ln) (37 °C): -0.454 ± 0.1

AGAAAGCAAUAUUACGCAAC
self-splicing fitness (ln) (30 °C): -1.96 ± 0.25 | self-splicing fitness (ln) (37 °C): -2.02 ± 0.39

GGAUAGCAAUAUUACGGGGA
self-splicing fitness (ln) (30 °C): -3.41 ± 0.29 | self-splicing fitness (ln) (37 °C): -3.52 ± 0.42

CACAAGCAAUAUUACGGCUC
self-splicing fitness (ln) (30 °C): -2.56 ± 0.18 | self-splicing fitness (ln) (37 °C): -1.75 ± 0.16

CGUCAGCAAUAUUACGAAGA
self-splicing fitness (ln) (30 °C): -2.26 ± 0.19 | self-splicing fitness (ln) (37 °C): -2.09 ± 0.23

CGUCAGCAAUAUUACGUGAG
self-splicing fitness (ln) (30 °C): -0.162 ± 0.04 | self-splicing fitness (ln) (37 °C): -0.124 ± 0.061

GCCCAGCAAUAUUACGCGUC
self-splicing fitness (ln) (30 °C): -1.17 ± 0.067 | self-splicing fitness (ln) (37 °C): -0.202 ± 0.075

AGAUAGCAAUAUUACGAUGG
self-splicing fitness (ln) (30 °C): -2.2 ± 0.14 | self-splicing fitness (ln) (37 °C): -3.07 ± 0.22

CAAUAGCAAUAUUACGCCUA
self-splicing fitness (ln) (30 °C): -2.01 ± 0.22 | self-splicing fitness (ln) (37 °C): -1.74 ± 0.18

UAGAAGCAAUAUUACGUGGA
self-splicing fitness (ln) (30 °C): -2.1 ± 0.13 | self-splicing fitness (ln) (37 °C): -1.92 ± 0.16

CUUAAGCAAUAUUACGCGGA
self-splicing fitness (ln) (30 °C): -1.74 ± 0.25 | self-splicing fitness (ln) (37 °C): -2.58 ± 0.44

AGGUAGCAAUAUUACGUAUC
self-splicing fitness (ln) (30 °C): -3.25 ± 0.025 | self-splicing fitness (ln) (37 °C): -2.07 ± 0.038

CUCCAGCAAUAUUACGAGAC
self-splicing fitness (ln) (30 °C): -4.42 ± 0.46 | self-splicing fitness (ln) (37 °C): -3.28 ± 0.37

UUACAGCAAUAUUACGAGCU
self-splicing fitness (ln) (30 °C): -3.55 ± 0.31 | self-splicing fitness (ln) (37 °C): -3.12 ± 0.34

UAAAAGCAAUAUUACGGAAC
self-splicing fitness (ln) (30 °C): -3.24 ± 0.27 | self-splicing fitness (ln) (37 °C): -2.68 ± 0.4

GUGAAGCAAUAUUACGCAUU
self-splicing fitness (ln) (30 °C): -2.66 ± 0.27 | self-splicing fitness (ln) (37 °C): -1.05 ± 0.15

ACAGAGCAAUAUUACGACUG
self-splicing fitness (ln) (30 °C): -1.05 ± 0.11 | self-splicing fitness (ln) (37 °C): -1.54 ± 0.15
